Measured values from US20230167182A1 (BIOSION, published 2023).
Where two headings read alike, the source gives them in different places.

T1: human IL6R expressed on cell surface (human, UniProt P08887 20-468)
T1 construct: whole, on cells; also called cell surface human IL6R; U266 cells expressing human IL6R
T1 sequence (looked up): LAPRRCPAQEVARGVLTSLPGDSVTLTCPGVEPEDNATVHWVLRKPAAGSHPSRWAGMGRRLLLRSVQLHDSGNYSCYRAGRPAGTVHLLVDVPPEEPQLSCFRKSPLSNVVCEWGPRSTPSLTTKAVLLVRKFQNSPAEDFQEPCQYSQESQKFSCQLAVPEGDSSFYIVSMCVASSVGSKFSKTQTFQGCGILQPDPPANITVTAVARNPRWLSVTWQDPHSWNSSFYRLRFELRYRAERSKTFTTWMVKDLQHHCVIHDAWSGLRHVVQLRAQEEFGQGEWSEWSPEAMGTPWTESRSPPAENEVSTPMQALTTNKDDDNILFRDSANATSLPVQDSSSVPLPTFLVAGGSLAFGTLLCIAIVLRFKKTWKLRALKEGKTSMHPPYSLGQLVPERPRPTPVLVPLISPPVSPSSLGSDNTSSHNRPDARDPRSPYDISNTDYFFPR


Experiments:
human IL6R-Fc protein [1] = molecular target: T2, human IL6R-Fc protein (human, biotin-labeled in the ELISAs (sites not given)); assay: benchmark blocking ELISA: antibody pre-incubated with biotin-labeled human IL6R-Fc, added to plate-coated Tocilizumab (competitor: Tocilizumab)
T2 construct: In house made; also called biotin-labeled human IL6R-Fc protein
Experimental: (§1) ELISA plates were washed once with wash buffer (PBS+0.05% v/v Tween-20, PBST) and then blocked with 200 μl/well blocking buffer (5% w/v non-fatty milk in PBST) overnight at 4° C.
(§2) The next day, the anti-IL6R antibodies of the disclosure or controls were diluted with biotin labeled human IL6R-Fc protein (SEQ ID NO: 43, 13.6 ng/ml in 2.5% w/v non-fatty milk in PBST), starting at 100 nM with a 5-fold serial dilution, and incubated at room temperature for 40 minutes. […] After incubation at 37° C. for 40 minutes, plates were washed 4 times using wash buffer. Then streptavidin conjugated HRP was added, and the plates were incubated for 40 minutes at 37° C. The plates were finally washed using wash buffer, and added with TMB. The reaction was stopped using 1M […], and the absorbance was read on a microplate reader using dual wavelength mode with 450 nm for TMB and 630 nm as the reference wavelength. The OD (450-630) values were plotted against antibody concentration. Data was analyzed using Graphpad Prism software and IC₅₀ values were reported.

[2] = molecular target: T1, human IL6R expressed on cell surface; assay: cell-based binding FACS on U266 cells
Experimental: (§3) The binding activities of the mouse anti-IL6R antibodies to IL6R expressed on cell surface were tested by flow cytometry (FACS). Briefly, human myeloma cells U266 (ATCC® TIB-196™) were harvested from cell culture flasks, washed twice and resuspended in phosphate buffered saline (PBS) containing 2% v/v Fetal Bovine Serum (FACS buffer). 2×10⁵ U266 cells per well were incubated in 96 well-plates with 100 μl of the anti-IL6R antibodies or controls at various concentrations (starting at 40 nM with a 3-fold serial dilution in FACS buffer) for 40 minutes on ice. Cells were washed twice with FACS buffer, and added with 100 μL/well R-Phycoerythrin AffiniPure F(ab′)₂ Fragment Goat Anti-Mouse IgG (H+L) (1:1000 dilution in FACS buffer, Jackson ImmunoResearch Laboratories, Inc., Cat #115-116-146). Following an incubation of 40 minutes at 4° C. in dark, cells were washed three times and resuspended in FACS buffer. Fluorescence was measured using a Becton Dickinson FACS Canto II-HTS equipment. Data was analyzed using Graphpad Prism software and EC₅₀ values were reported.

human IL6R-Fc protein [3] = molecular target: T2, human IL6R-Fc protein; assay: ligand blocking ELISA: antibody pre-incubated with biotin-labeled human IL6R-Fc, added to plate-coated human IL6 (blocked ligand: human IL6)
Experimental: as §1
Target sequence in this assay (chain, as listed by the source limits assumed): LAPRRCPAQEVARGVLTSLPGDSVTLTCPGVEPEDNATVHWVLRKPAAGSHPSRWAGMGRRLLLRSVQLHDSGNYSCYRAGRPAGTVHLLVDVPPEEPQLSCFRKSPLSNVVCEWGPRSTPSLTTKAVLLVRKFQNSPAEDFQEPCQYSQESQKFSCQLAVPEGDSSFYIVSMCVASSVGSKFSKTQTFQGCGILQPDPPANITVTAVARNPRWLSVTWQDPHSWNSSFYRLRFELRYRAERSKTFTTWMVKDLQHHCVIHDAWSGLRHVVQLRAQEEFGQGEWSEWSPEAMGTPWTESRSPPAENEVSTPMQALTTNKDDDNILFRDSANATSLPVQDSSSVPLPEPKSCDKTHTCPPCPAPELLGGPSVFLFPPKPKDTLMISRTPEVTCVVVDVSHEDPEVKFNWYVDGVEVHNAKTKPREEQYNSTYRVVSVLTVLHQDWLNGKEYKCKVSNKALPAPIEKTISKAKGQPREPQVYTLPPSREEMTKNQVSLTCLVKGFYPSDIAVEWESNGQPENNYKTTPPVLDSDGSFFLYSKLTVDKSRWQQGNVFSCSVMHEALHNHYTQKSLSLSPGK
The next day, anti-IL6R antibodies or controls were diluted with biotin labeled human IL6R-Fc protein (prepared in house, SEQ ID NO: 43, 39.5 ng/ml in 2.5% w/v non-fatty milk in PBST), starting at 100 nM with a 4-fold serial dilution, and incubated at room temperature for 40 minutes. […] Plates were washed for 4 times using wash buffer, and added and incubated with 100 μl/well of streptavidin conjugated HRP (1:10000 dilution in PBST buffer, Jackson ImmunoResearch Laboratories, Inc., Cat #016-030-084) for 40 minutes at 37° C. Plates were washed again using wash buffer. Finally, TMB was added and the reaction was stopped using 1M H₂SO₄. The absorbance was read on a microplate reader using dual wavelength mode with 450 nm for TMB and 630 nm as the reference wavelength, and then the OD (450-630) values were plotted against antibody concentration. Data was analyzed using Graphpad Prism software and IC₅₀ values were reported.

[4] = molecular target: T1, human IL6R expressed on cell surface; assay: cell-based binding FACS on U266 cells; remark: listed apart in the source
Experimental: as §3

human IL6R-Fc protein [5] = molecular target: T2, human IL6R-Fc protein; assay: benchmark blocking ELISA: antibody pre-incubated with biotin-labeled human IL6R-Fc, added to plate-coated Tocilizumab (competitor: Tocilizumab); remark: listed apart in the source
Experimental: as §1, §2
Target sequence in this assay (chain, as listed by the source limits assumed): as above

human IL6R-Fc protein [6] = molecular target: T2, human IL6R-Fc protein; assay: as above; remark: listed apart in the source
Experimental: as §1, §2

Binder	IC50 (human IL6R-Fc protein [1])	EC50 [2]	IC50 (human IL6R-Fc protein [3])	EC50 [4]	IC50 (human IL6R-Fc protein [5])	IC50 (human IL6R-Fc protein [6])
Tocilizumab (antibody, human IgG1, kappa, V domains shown, In house made; also called benchmark; Actemra) VH: QVQLQESGPGLVRPSQTLSLTCTVSGYSITSDHAWSWVRQPPGRGLEWIGYISYSGITTYNPSLKSRVTMLRDTSKNQFSLRLSSVTAADTAVYYCARSLARTTAMDYWGQGSLVTVSS VL: DIQMTQSPSSLSASVGDRVTITCRASQDISSYLNWYQQKPGKAPKLLIYYTSRLHSGVPSRFSGSGSGTDFTFTISSLQPEDIATYYCQQGNTLPYTFGQGTKVEIKR	1.58 nM	1.64 nM	1.03 nM	1.49 nM	0.862 nM	2.23 nM
humanized antibody hu1H7-V5 (antibody, human IgG1, kappa, V domains shown, Human IgG1 / kappa) VH: QVQLVQSGAEVKKPGASVKVSCKASGYTFTNYWMHWVRQAPGQGLEWIGEINPTNGRTNYNENFKSRVTLTVDTSTSTVYMELSSLRSEDTAVYYCARLNTHYVFDSWGQGTLVTVSS VL: EIVLTQSPGTLSLSPGERATLSCSVSSSISSNYLHWYQQKPGLSPRLLISRTSTLASGIPARFSGSGSGTEYTLTISRMQSEDFAVYYCQQGSGIPFTFGQGTKLEIKR	–	–	0.223 nM	–	0.364 nM	–
mouse anti-IL6R monoclonal antibody 1D4 (antibody, V domains shown, Mouse hybridoma mAb) VH: QVQLQQPGAELVKPGASVKLSCKASGYTFTSYWMHWVKVRPGQGLEWIGEINPTNGRTNYNEDFKSKATLTVNSSSSTAYMQLSSLTSEDSAVYYCARLNTHYVFDYWGQGTTLTVSS VL: EIVLTQSPTILAASPGEKITFTCSVSSSISSNYLHWYQQKPGFSPKLLIYRTSNLASGVPARFSGSGSGTSYSLTIGTMEAEDVATYYCQQGSGIPFTFGSGTKLEIK	–	0.274 nM	–	–	–	–
Chimeric 1H7 (antibody, human IgG1, kappa, V domains shown, Mouse variable regions on human IgG1 / human kappa constant regions; also called chimeric antibody 1H7) VH: QVQLQQPGTELVKPGASVKLSCKASGYTFTNYWMHWVKQRPGQGLDWIGEINPTNGRTNYNENFKSKATLTVDKSSSTAYMQLSSLTSEDSAVYYCARLNTHYVFDSWGQGTTLTLSS VL: EIVLTQSPTTLAASPGEKITFTCSVSSSISSNYLHWYQQKPGFSPKLLISRTSTLASGVPARFSGSGSGTSYSLTIGTMEAEDVATYYCQQGSGIPFTFGSGTKLELKR	–	–	0.161 nM	–	0.203 nM	–

Results, then the binder that gave them:

IC50 (human IL6R-Fc protein [1])	EC50 [2]	IC50 (human IL6R-Fc protein [3])	EC50 [4]	IC50 (human IL6R-Fc protein [5])	IC50 (human IL6R-Fc protein [6])	Binder
–	0.304 nM	–	–	–	–	mouse anti-IL6R monoclonal antibody 1F7 (antibody, V domains shown, Mouse hybridoma mAb) VH: QVQLQQPGAELVKPGASVKLSCKASDYTFTSYWMHWVKQRPGQGLEWIGEINPSNGRTNYNEKFKNKATLTVDKSSSTAYVQLYSLTSEDSAVYYCARLSIHYVFDYWGQGTTLTVSS VL: ELVLTQSPTTMAASPGEKITFTCSASSSISSNYLHWYQQKPGFSPKLLISGTSNLASGVPPRFSGSGSGTSYSLTIVTMEAEDVATYYCQQGSGIPFTFGSGTKLEIK
0.105 nM	0.246 nM	0.189 nM	–	0.237 nM	–	mouse anti-IL6R monoclonal antibody 1H7 (antibody, V domains shown, Mouse hybridoma mAb) VH: QVQLQQPGTELVKPGASVKLSCKASGYTFTNYWMHWVKQRPGQGLDWIGEINPTNGRTNYNENFKSKATLTVDKSSSTAYMQLSSLTSEDSAVYYCARLNTHYVFDSWGQGTTLTLSS VL: EIVLTQSPTTLAASPGEKITFTCSVSSSISSNYLHWYQQKPGFSPKLLISRTSTLASGVPARFSGSGSGTSYSLTIGTMEAEDVATYYCQQGSGIPFTFGSGTKLELK
–	–	–	0.286 nM	–	0.708 nM	mouse anti-IL6R monoclonal antibody 3C2 (antibody, V domains shown, Mouse hybridoma mAb) VH: QVQLQQPGTELVKPGASVKLSCKASGYTFTTYWIHWVKQRPGQGLEWIGEINPSNGRTNYNEHFKSKATLTVDKSSSTASMQLSSLTSADSAVYYCARLNTHYVFDSWGQGTTLTVSS VL: EIVLTQSPTTMAASPGEKITITCSASSSISSNYLHWYQQKPGFSPKLLIYRTSNLASGVPTHFSGSGSGTSYSLTIGTMEAEDVATYYCQQGSGIPFTFGSGTKLEIK
–	–	–	0.34 nM	–	0.481 nM	mouse anti-IL6R monoclonal antibody 1G1 (antibody, V domains shown, Mouse hybridoma mAb) VH: QVQLQQPGAELVKPGASVKLSCKASGYTFTSYWMHWVKVRPGQGLEWIGEINPTNGRTNYNEDFKSKATLTVESSSSTAYMQFSSLTSEDSAVYYCARLNTHYVFDYWGQGTTLTVSS VL: EIVLTQSPTILAASPGEKITFTCSVSSSISSNYLHWYQQKPGFSPKLLIYRTSNLASGVPARFSGSGSGTSYSLTIGTMEAEDVATYYCQQGSGIPFTFGSGTKLEIK
0.323 nM	0.391 nM	–	–	–	–	mouse anti-IL6R monoclonal antibody 1H9 (antibody, V domains shown, Mouse hybridoma mAb) VH: QVQLQQPGAELVKPGASVKLSCKASGYTFTSYWMHWVKLRPGQGLEWIGEINPTNGRTNYYEKFKNRATLTADKSSSTAYMQLSSLTFEDSAVYFCAKFHYSRWYFDVWGTGTTVTVSS VL: DIVMTQSQKFMSTSVGDRVSITCKASQNVGTAVVWYQQKPGQSPKLLINPASNRYTGVPDRFTGSGSGTDFTLTISNMQSEDLADYFCQQYSSYPLTFGAGTKLELK
